The target of experiment [1] is T1, C4^P-D^WW protein polymer (C4^P polymer with a C-terminal WW domain WWP1-1) (human). As to the kind of experiment: ITC; MicroCal VP-ITC, 25 °C, 10 mM sodium phosphate pH 7; 200 uM C4^P-D^WW (1.4 mL) in the cell, 2.9 mM ligand in the syringe, 63 injections of 4 uL; triplicate, Kd values averaged. The note with it: both partners purified. (In general: ITC needs no label: the signal is the heat of the interaction.)

For experiment [2], the target named is T1, C4^P-D^WW protein polymer (C4^P polymer …). Put plainly: other fluorescence titration; steady-state tryptophan fluorescence (excitation 295 nm, emission 340 nm); 500 uL of 10 uM C4^P-D^WW in the cuvette, 500 uM ligand added stepwise up to ~24 uM; 10 mM sodium phosphate pH 7, RT; triplicate, fit on averaged data. The conditions noted are these: both partners purified.

We go through 2 molecules from publication PMC4902918, “Production in Pichia pastoris of complementary protein-based polymers with heterodimer-forming WW and PPxY domains” (Microbial Cell Factories, 2016).

No end group written: not given here. C4^P polymer block = not defined here; O‑glycan = not defined here

The Kd is the free concentration of one partner at which half of the binding sites on the other are occupied at equilibrium, for simple one-to-one binding. A high value points to lower affinity. What is called stoichiometry N is a count of units in the complex or per binding partner.

T1 sequence (chain, as listed by the source): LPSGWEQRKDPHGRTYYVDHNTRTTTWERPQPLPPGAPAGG

B1: C4^P-D^PPxY protein polymer (C4^P polymer with a C-terminal PPxY proline-rich ligand), O-glycosylated (other)
chain: {C4^P polymer block}-EYPPYPPPPYPS(O‑glycan)GPAGG
modifications: reading uncertain; also: O-glycans heterogeneous, tentatively Man3 to Man7, mostly phosphorylated in diester linkage, minor fraction nonglycosylated
For B1, in experiment [1], binding was put at a Kd of 9.3 µM and the “stoichiometry N” value was ~0.9. Binding in experiment [2] was characterised by a dissociation constant (Kd) of 2.5 µM.

On to {C4^P polymer block}-EYPPYPPPPYPAGPAGG (other, reading uncertain; also: nonglycosylated) [C4^P-D^PPxY* protein polymer (Ser12 to Ala mutant of the PPxY module, nonglycosylated)], for which, in experiment [1], the Kd was 9.2 µM and the “stoichiometry N” value was ~0.9. Also, in experiment [2], the Kd came to 2.7 µM.
